Key:
Assay in all cases: SEC; single purified protein on Superdex 200 10/300 GL, apparent mass against protein standards
[1] = target: full-length gp44 with C-terminal His6 tag (gp44–His), bacteriophage 80α (Staphylococcus aureus bacteriophage 80α)
[2] = target: gp44-NTD-His (gp44 residues 1–271) (Staphylococcus aureus bacteriophage 80α)
[3] = target: untagged CI immunity repressor of bacteriophage 80α (Staphylococcus aureus bacteriophage 80α)
[4] = target: untagged gp44 of bacteriophage 80α (Staphylococcus aureus bacteriophage 80α)

full-length gp44 with C-terminal His6 tag (gp44–His), bacteriophage 80α (natural protein)
stoichiometry N [1]: 2

gp44-NTD-His (gp44 residues 1–271) (domain or fragment)
stoichiometry N [2]: 2

untagged CI immunity repressor of bacteriophage 80α (natural protein)
stoichiometry N [3]: 2

untagged gp44 of bacteriophage 80α (natural protein)
stoichiometry N [4]: 2

From PMC7290940
